Test results from the nanobody polyreactivity screen of Harvey et al. (2022).

Experiment: yeast display, Sf9 membrane polyspecificity reagent, FACS + sequencing; frameworks hold sequencing errors
Procedure, shortened: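 A synthetic nanobody library was expressed on Saccharomyces cerevisiae BJ5465 by galactose induction for 36–48 hours. The library was stained for 1 hour at 4 °C with 10% biotinylated, detergent-solubilized Sf9 membrane reagent and enriched with streptavidin microbeads before FACS. Low and high (top ~1%) gates were set on anti-HA fluorescence for expression and streptavidin fluorescence for reagent binding, and each polyreactivity label reflects the gate of origin.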

| Sequence | polyreactivity (PSR sort gate) |
| --- | --- |
| QVQLVESGGGLVQAGGSLRLSCAASGSTFARNAMGWYRQAPGKERELVAAISSGGTTNYADSVKGRFTISRDNAKNTVYLQMNSLKPEDTAVYYCNAGFRNVLTSGYLYDYWGQGTQVTVSS | low polyreactivity |
| QVQLVESGGCLVQAGGSLRLSCAASGRTFVTYAMRWYRQAPGKERELVAGISRRGGRTYYADSVKGRFTISRDNAKNTVYLQMNSLKPEDTAVYYCAALTYYGSDYWGQGTQVTVSS | high polyreactivity |
| QDQLVESGGGLVQAGGSLRLSCAASGSIFPDYVMGWYRQAPGKERELVAAISASGGSTYYADSVKGRFTISRDNEKNTVYLKMNSLKPEDTAVYYCNASPKTYLRRKYDYWGQGTQVTVSS | high polyreactivity |
| QVQLVESGGGLDQAGGSLSLICAASASIFSYYAMGWYRQAAGKERELVATISSGGSTNYADSVKGRFTISRDNAKNTVYLQMNSLKPEDTAVYYCAATIGHNGFDYWGQGTQVTVSS | low polyreactivity |
| QVQLVESGGGLVQAGGSLRLSCAPSGRIFSYNTMGWYRQAAGKERELVAAISSSGGSTYYADSVKGRFTISRDNAKNTFYLQMNSLKPEDTALYYCNAVGRFSTRREYWGQGTQVTVSS | high polyreactivity |
| QEQLVQSAGGLVQAGGSLPLSCAASGSIIISNAMGWYRQAPGKERELVAAISRSGARTYYADSVKGRFTISRDNAKNTVYLQMNSLKPEDTAVYSCAVDGYSPYKYDYWGQGTLVTVSS | high polyreactivity |
| QVQLVESGGGLVQAGGSLRLSCDASGSTFAAYAMGWYRQAPGKERELVAAISRSGGTTYYADSVKGRFTISRDNAKNTVYLQMNSLKPEDTAVYYCAAELSLGNYWYDYWGQGTQVTVSS | high polyreactivity |
| QVQLVESGGGLVQAGGSLPLSCAASGRTFHYNAMGWYRQAPGKERDLFAAISRDGGSTDYADSVKGRFTISSDNAKNTVYLQMNSLKPEDTAVYYCAAPIGKQEFSRDYDYWGQGTQVTVSS | low polyreactivity |
| QVQLVESGGGLVQAGGSLRLRCAASGIIFSPYDMGWSIQAPGKVRELVAAITTGDSTNYADSVKGRFTMSRDNAKTTVYFPMNSLKPEDTAVDYCNATDTYVFFLYLEFDYWGQGTQVTVSS | low polyreactivity |
| QVQLVESGGGLVQAGGSLRLSCAASGRIFAFYAMGWYRQAPGKEREFVAAISWSGGSTYYADSVKGRFTISRDNAKNTVYLQMNSLKPEDTAVYYCAARSRVRHSGMNYWGQGTQVTVSS | high polyreactivity |
| QVQLVESGGGLVQAGGSLRLSCAASGSTFRPYAMGWDRQAPGKERELVAAITSTGGSTYYADSVKGRFTISRDNAKNTVYLQMNSLKPEDTAVYYCAAPLVRYAGPYDYWGQGTQVTVSS | low polyreactivity |
| QVQLVESGGGLVQAGGSLRLSCAASGIISYQKAMGWYRQAPGKERELVAGITYSGGSTYYADSVKGRFTISRDNAKNSVYLQMNSLKPEDTAVYYCAARVVYWTWAGLSKMDYWGQGTQVTVSS | high polyreactivity |
| HVQLVETGGGIVQAGGSLRLSCAASGFIFRYYARGWYRPSHGKETELVAAIDYSGGSTNYADSVKGRFTISRDYAKNTVSLQMNSLKPEDTAVYYCAAYLGWGYDYWGQGTQVTVSS | low polyreactivity |
| QVQLVESGVGLVQAGGSLRLSCAASGFTFDDNAMGWYRQAPGKERDFVASITNSTGSTYADSVKGRFTISRDNAKNTFYLQMNSLKPEDTAVDYCAVDNISNWAVENDYWGQGTQVTVSS | low polyreactivity |
| QVQLVETGGGLVQAGGSLRLSCAASGRTFVYNGMGWYRQAPGKERELVAAISGSGGSTYYADSVKGRFTISRDNAKNTVYLQMNSLKPEDTAVYYCATRQGYRLYYWGQGTQVTVSS | high polyreactivity |
| QVQLVESGGGLVQAGGSLRLSCAASGYTFPDYAMGWYRQAPGKERELVADITSAGNTYYADSVKGRFTISRDNAKNTVYLQMNSLKPEDTAVYYCNKDDLWENGISYSSPYRLDHWGQGTQVTVSS | low polyreactivity |
| QVQLVESGGGLVQAGGSLRLSCAASGSIFAFYTMGWYRQAPGKERELVATITRSGRTNYADSVKGRFTISRDNAKNTVYLQMNSLKPEDTAVYYCAAGYLSGNYARYGYWGQGTQVTVSS | high polyreactivity |
| QVQLVESGGGLVQAGGSLRLSCAASGSIFQGYAMGWYRKAPGKERELVAAITSSGGSTRYADSVKGRFTISRDNAKNTVYLQMNSLKPEDTAVYYCAARYKWPYDYWGQGTQVTVSS | high polyreactivity |
| QVQLVESGGGLVQAGGSLRLSCAASGYTFIGYAMGWYRQAPGKERELVAAISWSVGRTYYADSVKGRFTISRDNAKNTVYLQMNSLKPEDTAVYYCNAVSSFYYCYDYWGQVTQVTVSS | low polyreactivity |
| QVHLVESGGGLVQAGRSLRLICAASGSTFPTYAMGWYRQAPGKETELVAAISTRGGSTYYADSVKGRFTISRDNAKNTVYLQMNSVKPEDTAVYYCATGKTVGRYHYEYWGQGTQVTVSS | low polyreactivity |
| QVQLVESGGGLVQAGGSLRLSCAASGLTLRRYAMGWYRQAPGKETELVAGITSGGSTYYADSVKGRFTISRDNAKNTVYLQMYSLKPEDTAVYYCAARVRKYYKPYGYWGQGTQVTVSS | high polyreactivity |
| QVQLEESGGGLVQAGGILRLSCAASGSIFIPNAMGWYRQAPGKERELVAAIRSGGSTYYADSVKGRFTISRDNAKNTVYLQMNSLKPEDTAVYYCAADTYTYYYYLARYYYWGQGTQVTVSS | low polyreactivity |

| Sequence | polyreactivity (PSR sort gate) |
| --- | --- |
| QVQLVESGGGLVQAGGSLRLSCAASGSIFRYYAMGWYIQAPGKERELVAVITRGGSTYYADSVKGRFTISRDNAKNTVYLQMNSLKPEDTAVYYCAADYWPAGLDRGYWGQGTQVTVSS | low polyreactivity |
| QLQLVESGGGLVQAGGRLRLSCAASGRTFYDYAMGWYRQSPGKERELVAAIDNGGSTYYADSVKGRFTISRDNAKNTVYLQKNSLKPEDTAVYYCNADGATVWSLEYCGQGTQVTVSS | low polyreactivity |
| QVQLVESGGGLVQAGGSLRLSCAASGSTFWSYTMGWYRPAPGKERELVARIRTTGGSTYADSVKGRFTISRDNAKNTVYLQMNSLKPEDTAVYDCAKEGWLRYYPWYGGDYWGQGTLVTVSS | high polyreactivity |
| QVQLVESGVGLVQAGGSLRLSCAASGSIFGRNAMGWYRQAPGKERELVARISYIGGSTYYADSVKGRFTISRDNEKNTVYLQMNSLKPEDTSVYYCAKRYGFGYKRMDYWGQGTQVTVSS | low polyreactivity |
| QVQPQESGGGQVQAGSCLRLSCTASGYIFLYAYMGRYRQAPGKEREFVATITDGTSTYYADSVKGRFTISRNNAKNIVYLQMNSLKPEDTAVYYCAADAGGGYPGDEDWGQGTQVTVSS | low polyreactivity |
| QGQLVESGGGLVQAGGSLRLSCSASGLIFYRYTMGWYRQAPGKEREVVAAISSGGRTYSADSVKGRFTISRDNAKNTVYLQMNSLKPEDTAVYYCATRVYSVHAPSAVPIGGYYWGQGTQVTVSS | high polyreactivity |
| QVQLVETGGGLVQAGGSLRLSCAASGIFVSYAMGWYRQAPGKERELVAAIRYSGDSTYYADSVKGRFTISRDNAKNTVYLQMNSLKPEDTAVYYCAATKGWSRYEYWGQGTQVTVSS | low polyreactivity |
| QVQLVESGGGLVQAGGSLRLSCAASGRTLHDYTMGWYRQEPGKERELVAGITSGGRTNYADSVKGRFTISRYNAKNTVYLQMNSLKPEDTAVYYCAAAWTWWRLYADDYWGQGTQVTVSS | high polyreactivity |
| QVQLVESGGGLVQAGGSLRLSCAASGRIFTRYALGWYRHADGKVRELVATISRGGNTNYADSVKGRFTISRDNANNTVYLQMTSLKPEDTAVYYCAKYPVSRVGGYGYWGQGTQVTVSS | low polyreactivity |
| QVQLVESGGGLVQAGGSLRLSCAASGSTFSINAMGWYRQAPGKERELVAAISWRGSGTYYADSVKGRFTISRDNAKNTVYLQMNSLKPEDTAVYYCAAEWDRPLYYPWYVEYDYWGQGTQVTVSS | high polyreactivity |
| HVKLVESGGGLVQAGGCLRLSCAASGSNFFHNAMGWYRQAPGKERELVATISWRSASTYYADSVKGRFTISRDNAKKTVYLQMNSLKPEDTAVYYCAAKLHYRQYYYRYGYDYWGQGTQVTVSS | high polyreactivity |
| QVHLVESGGGLVQAGGSLRLSCAASGSTFRVYAMGWYRQAPGKERELVARISITGGTTRYADSVKGRFTISRDNAKNTVYLQMNSLKPEDTAVYYCNADYDWYYWYLYKYPFDYWGQGTQVTVSS | low polyreactivity |
| QVQLVESGGGLVQAGGSLRLSCAASGSIFGKDAMVWYRQAPGKEREFVAGIRGSGTRTYYADSVKGRFTISRDNAKNTVYLQLNSLKPEDTAVYYCNAVFGYRGPYYYWGQGTQVTVSS | high polyreactivity |
| QVQLVESGGGLVQEGGSLRLSCAASGSIFRFYVMGWYRQAPGKERELVAAISIGGSTNYADSVKGRFTISRDNAKNTVYLQMNSRKPEDTAVYYCAADDWYGAGLPHGTEFDYWGQGTQVTVSS | low polyreactivity |
| QVQLVESGGGLVQAGGSLRLSCAASGLTFDRYVMGWYRQAPGKERELVAGISTGGSSTYYADSVKGRFTISRDNAKNTVYLQMNSLKPEDTAVYYCAAKLSYWSRHNYWGQGTQVTVSS | high polyreactivity |
| QVQLVESGGGLVQAGGSLRLSCAASGYTFDRYAMGWYRQAPGKERELVAVISRSGATTYYADSVKGRFTISRDNAKNTVYLQMNSLKPEDTAVYYCAARNPSGKGRYDYWGQGTQVTVSS | high polyreactivity |
| QVQLVESGGGLVQAGGSLRLTCAASGRTFGYYTMGWYRQAPGKERELVATISSDGTTNYADSVKGRFTISRDNAKNTVYLQMNSLKPEDTAVYYCNADFRLQYYYRIYDYWGQGTQVTVSS | low polyreactivity |
| QVQLVESGGGLVQAGGSLRLSCAASGSIFAQYAMGWYRQAPGKETELVAAISYRGGRTYYADSVKGRFTISRDNAKNTVYLQMNSLKPEDTAVYYCNADSSSYSSDLGYDYWGQGTQVTVSS | low polyreactivity |
| QVQLVESGGGLVQAGGSLRLSCAASGLTFVHYAMGWYRQAPGKQRDLVAAISSGGGSTYYADSVKGRFTISRDNAKNTVYLQMNSLKPEDTAVYYCNVYDHYYSFYSSRDNDYWGQGTQVTVSS | low polyreactivity |
| QVQLVESGGGLVQAGGSLRLSCAASGFTFNDYAMGWYRQAPGKERELVAAISKSGSRTYYADSVKGRFTISRDNAMNTVYLQMNSLKPEDTAVYYCNALPSYYGTYDYWGQGTQVTVSS | high polyreactivity |
| QVQLVESGGGLVQAGGSLRLSCAASGFTFYTNAMGWYRQAPGKERELVAAISKRGASTYYADSVKGRFTISRDNAKNTVYLQMNSLKPEDTAVYYCAASSRTHGSYDYWGQGTQVTVSS | high polyreactivity |
